# Data published in US20220170923A1 (NATIONAL CHENG KUNG UNIVERSITY, published 2022).
# B1: spike protein (S protein) of MERS-CoV with His-tag (other)
# chain: YVDVGPDSVKSACIEVDIQQTFFDKTWPRPIDVSKADGIIYPQGRTYSNITITYQGLFPYQGDHGDMYVYSAGHATGTTPQKLFVANYSQDVKQFANGFVVRIGAAANSTGTVIISPSTSATIRKIYPAFMLGSSVGNFSDGKMGRFFNHTLVLLPDGCGTLLRAFYCILEPRSGNHCPAGNSYTSFATYHTPATDCSDGNYNRNASLNSFKEYFNLRNCTFMYTYNITEDEILEWFGITQTAQGVHLFSSRYVDLYGGNMFQFATLPVYDTIKYYSIIPHSIRSIQSDRKAWAAFYVYKLQPLTFLLDFSVDGYIRRAIDCGFNDLSQLHCSYESFDVESGVYSVSSFEAKPSGSVVEQAEGVECDFSPLLSGTPPQVYNFKRLVFTNCNYNLTKLLSLFSVNDFTCSQISPAAIASNCYSSLILDYFSYPLSMKSDLSVSSAGPISQFNYKQSFSNPTCLILATVPHNLTTITKPLKYSYINKCSRFLSDDRTEVPQLVNANQYSPCVSIVPSTVWEDGDYYRKQLSPLEGGGWLVASGSTVAMTEQLQMGFGITVQYGTDTNSVCPKLEFANDTKIASQLGNCVEYSLYGVSGRGVFQNCTAVGVRQQRFVYDAYQNLVGYYSDDGNYYCLRACVSVPVSVIYDKETKTHATLFGSVACEHISSTMSQYSRSTRSMLKRRDSTYGPLQTPVGCVLGLVNSSLFVEDCKLPLGQSLCALPDTPSTLTPRSVRSVPGEMRLASIAFNHPIQVDQLNSSYFKLSIPTNFSFGVTQEYIQTTIQKVTVDCKQYVCNGFQKCEQLLREYGQFCSKINQALHGANLRQDDSVRNLFASVKSSQSSPIIPGFGGDFNLTLLEPVSISTGSRSARSAIEDLLFDKVTIADPGYMQGYDDCMQQGPASARDLICAQYVAGYKVLPPLMDVNMEAAYTSSLLGSIAGVGWTAGLSSFAAIPFAQSIFYRLNGVGITQQVLSENQKLIANKFNQALGAMQTGFTTTNEAFHKVQDAVNNNAQALSKLASELSNTFGAISASIGDIIQRLDVLEQDAQIDRLINGRLTTLNAFVAQQLVRSESAALSAQLAKDKVNECVKAQSKRSGFCGQGTHIVSFVVNAPNGLYFMHVGYYPSNHIEVVSAYGLCDAANPTNCIAPVNGYFIKTNNTRIVDEWSYTGSSFYAPEPITSLNTKYVAPQVTYQNISTNLPPPLLGNSTGIDFQDELDEFFKNVSTSIPNFGSLTQINTTLLDLTYEMLSLQQVVKALNESYIDLKELGNYTYYNKWPW
# Target: T1, human angiotensin-converting enzyme 2 (ACE2) (human, UniProt Q9BYF1 18-740)
# T1 construct: also called ACE2 receptor; human angiotensin-converting enzyme 2 on a cell surface
# Assay: protein microarray, ACE2 in solution, Cy3 labeled anti-human IgG detection
# T1 sequence (Q9BYF1 18-740 limits assumed): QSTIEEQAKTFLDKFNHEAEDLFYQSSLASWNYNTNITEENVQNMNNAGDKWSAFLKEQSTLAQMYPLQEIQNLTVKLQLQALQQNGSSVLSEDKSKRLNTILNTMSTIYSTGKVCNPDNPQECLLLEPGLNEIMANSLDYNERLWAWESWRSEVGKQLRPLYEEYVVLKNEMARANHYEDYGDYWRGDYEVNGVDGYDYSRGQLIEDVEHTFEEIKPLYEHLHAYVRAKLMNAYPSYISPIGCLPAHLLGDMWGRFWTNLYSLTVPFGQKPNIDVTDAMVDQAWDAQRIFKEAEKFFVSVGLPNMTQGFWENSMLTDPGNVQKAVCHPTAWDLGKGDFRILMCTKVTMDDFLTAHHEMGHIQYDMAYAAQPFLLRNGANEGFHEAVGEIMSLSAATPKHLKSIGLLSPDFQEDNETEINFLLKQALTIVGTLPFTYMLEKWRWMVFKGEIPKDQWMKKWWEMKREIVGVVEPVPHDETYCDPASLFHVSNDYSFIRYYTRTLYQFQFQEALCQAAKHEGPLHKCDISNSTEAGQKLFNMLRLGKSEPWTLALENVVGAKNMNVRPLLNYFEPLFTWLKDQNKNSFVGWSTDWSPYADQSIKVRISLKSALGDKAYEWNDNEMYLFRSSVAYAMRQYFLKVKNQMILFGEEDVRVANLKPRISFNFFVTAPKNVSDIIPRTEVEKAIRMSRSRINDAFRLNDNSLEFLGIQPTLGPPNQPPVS
binder,measurement,value
B1,binding result,"no binding (tested: 25 ng, 50 ng, 75 ng, 100 ng, and 125 ng)"
